# ± gives the standard deviation of the averaged measurements.
# Test system: ATP
# Assay: switch fluorescence ratio, 500 uM ATP over buffer (Cy3 cluster intensity, sum of 5 cycles each) (fold (ratio)); higher = stronger signal-on switching upon ATP binding; sequences stand for … in TCGTCGGCAGCGTCAGATGTGTATAAGAGACAGTTTTTTTTTTTTTTTTTTTTTTTTT…TC
# Settings: aptamer strand: ATP DNA aptamer (quencher-CACCTGGGGGAGTATTGCGGAGGAAGG + anchor), 100 nM annealed; ATP concentration: 500 uM
# Summary of the method: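 The fluorescence ratio divides summed target-cycle Cy3 intensity by summed buffer-cycle Cy3 intensity for each cluster and is averaged per switch-domain sequence. Cy3-labelled switching-strand clusters on a modified Illumina MiSeq flow-cell were annealed to 100 nM quencher-labelled ATP aptamer, then imaged in selection buffer and again after 15 min with 500 uM ATP at 22 °C. Five such cycles were run, with NaOH stripping and re-annealing between them, and clusters outside 100-1000 RFU were excluded.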
# 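Note: ATP exposure 15 min at 22 °C before imaging.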
row,Sequence,switch fluorescence ratio
1,TTGAGGGATG,0.992 ± 0.013
2,TTGAGGGGGT,1.05 ± 0.16
3,TTGAGGGGTA,1.01 ± 0.021
4,TTGAGGGGTT,0.979 ± 0.0086
5,TTGAGGTGCA,0.992 ± 0.025
6,TTGAGGTGGG,1.23 ± 0.41
7,TTGAGGTTCG,1.05 ± 0.14
8,TTGAGGTTGA,0.994 ± 0.029
9,TTGAGTATTT,0.98182 ± 0.00089
10,TTGAGTCCGT,1.05 ± 0.075
11,TTGAGTCGGA,1.42 ± 0.7
12,TTGAGTGAAT,1 ± 0.042
13,TTGAGTGTTA,1.01 ± 0.011
14,TTGAGTGTTT,1.02 ± 0.017
15,TTGAGTTGTT,1.02 ± 0.082
16,TTGAGTTTTT,0.987 ± 0.024
17,TTGATACCTA,1.04 ± 0.038
18,TTGATAGGTC,1.01 ± 0.04
19,TTGATCTT,1.008 ± 0.0042
20,TTGATCTTAG,1.02 ± 0.018
21,TTGATCTTGG,1.04 ± 0.013
22,TTGATGCGTG,0.9661 ± 0.0063
23,TTGATGGGGT,1.03 ± 0.1
24,TTGATGGTCA,0.943 ± 0.041
25,TTGATGTAAA,0.997 ± 0.033

row,Sequence,switch fluorescence ratio
1,TTGATTAGAT,1.014 ± 0.0016
2,TTGATTGGTC,1.05 ± 0.019
3,TTGATTGTGG,1.03 ± 0.059
4,TTGATTGTTG,0.982 ± 0.013
5,TTGATTTCGA,1.06 ± 0.019
6,TTGATTTTCA,0.999 ± 0.015
7,TTGCAAAAAT,1 ± 0.046
8,TTGCAAGTTT,0.9811 ± 0.00083
9,TTGCACACGC,1.26 ± 0.08
10,TTGCACGGGC,1.007 ± 0.0052
11,TTGCACTAAC,1.22 ± 0.05
12,TTGCAGCTTA,1.05 ± 0.035
13,TTGCAGGGGG,0.998 ± 0.027
14,TTGCAGGTTT,1.11 ± 0.18
15,TTGCATCGGG,0.9891 ± 0.0034
16,TTGCATGAGG,1.01 ± 0.078
17,TTGCATGGAA,1.01 ± 0.0049
18,TTGCCATGTT,0.978 ± 0.036
19,TTGCCCCGGC,1.04 ± 0.016
20,TTGCCCGAA,1.01 ± 0.043
21,TTGCCGCAGC,1.49 ± 0.054
22,TTGCCGGGGC,0.998 ± 0.017
23,TTGCCGTGTT,1.02 ± 0.016
24,TTGCCTGTG,1.03 ± 0.033
25,TTGCGACGGT,1.02 ± 0.023

row,Sequence,switch fluorescence ratio
1,TTGCGAGGGC,1 ± 0.028
2,TTGCGATTTT,0.993 ± 0.028
3,TTGCGCAATT,1.51 ± 0.47
4,TTGCGCCTTT,1.03 ± 0.0099
5,TTGCGGACCA,0.996 ± 0.043
6,TTGCGGGGG,1.01 ± 0.017
7,TTGCGGGGGT,1 ± 0.054
8,TTGCGGTGCG,1.01 ± 0.062
9,TTGCGTAGCA,0.977 ± 0.02
10,TTGCGTAGGC,0.994 ± 0.034
11,TTGCGTAGTT,1.01 ± 0.029
12,TTGCGTGTTG,1.01 ± 0.019
13,TTGCGTTGTT,0.9695 ± 0.0043
14,TTGCTAAAAA,1.04 ± 0.03
15,TTGCTAAAGG,0.964 ± 0.016
16,TTGCTAAATG,1 ± 0.013
17,TTGCTAAGCG,1.02 ± 0.012
18,TTGCTACCAC,1.07 ± 0.036
19,TTGCTCATAT,1.02 ± 0.049
20,TTGCTCCTTT,1.02 ± 0.03
21,TTGCTCTTTG,1.0058 ± 0.00073
22,TTGCTGAGAC,1.24 ± 0.3
23,TTGCTGAGCC,0.96 ± 0.024
24,TTGCTGGGAT,1.02 ± 0.012
25,TTGCTGGTCA,0.9897 ± 0.0042

row,Sequence,switch fluorescence ratio
1,TTGCTTGAGA,0.996 ± 0.028
2,TTGGAAACAG,1 ± 0.014
3,TTGGAAGAGT,0.9941 ± 0.0083
4,TTGGAAGCTT,1.23 ± 0.22
5,TTGGAAGGTT,1.32 ± 0.42
6,TTGGAATTTT,1.03 ± 0.031
7,TTGGACGGGA,1.29 ± 0.47
8,TTGGACTAAG,0.99 ± 0.044
9,TTGGAGCACT,1.38 ± 0.075
10,TTGGAGGAAC,1.07 ± 0.12
11,TTGGAGGTTC,0.99 ± 0.063
12,TTGGAGTGCT,1.04 ± 0.045
13,TTGGAGTGGG,0.987 ± 0.051
14,TTGGATAGGG,1.04 ± 0.067
15,TTGGATGAGC,1.03 ± 0.07
16,TTGGATGGGT,0.959 ± 0.05
17,TTGGATGTCT,1.008 ± 0.0072
18,TTGGATTGGG,1.02 ± 0.064
19,TTGGCACGAT,1.012 ± 0.0011
20,TTGGCAGTCG,0.998 ± 0.02
21,TTGGCAGTTA,1.03 ± 0.061
22,TTGGCATGGC,1.04 ± 0.026
23,TTGGCATGTC,1.06 ± 0.041
24,TTGGCATTTA,1.034 ± 0.0054
25,TTGGCCCCCA,1.01 ± 0.017

row,Sequence,switch fluorescence ratio
1,TTGGCCGCGA,2.1 ± 0.066
2,TTGGCCGTAC,1.03 ± 0.029
3,TTGGCGGGCG,0.979 ± 0.034
4,TTGGCGGGTG,1.04 ± 0.041
5,TTGGCTTGTC,0.954 ± 0.019
6,TTGGCTTTGG,0.967 ± 0.0056
7,TTGGGAAACT,1.15 ± 0.24
8,TTGGGAATCA,0.988 ± 0.026
9,TTGGGACGGA,1.01 ± 0.034
10,TTGGGACGGG,0.994 ± 0.022
11,TTGGGAGATG,1.1 ± 0.13
12,TTGGGAGCTT,1.01 ± 0.048
13,TTGGGAGGGA,1 ± 0.038
14,TTGGGAGGGG,1.04 ± 0.083
15,TTGGGAGTTG,0.984 ± 0.037
16,TTGGGATATG,1.02 ± 0.065
17,TTGGGCACGG,0.991 ± 0.0052
18,TTGGGCAGTA,0.978 ± 0.057
19,TTGGGCATCA,1 ± 0.065
20,TTGGGCCGCT,0.974 ± 0.1
21,TTGGGCCTGG,0.9806 ± 0.0061
22,TTGGGCTGGT,0.962 ± 0.035
23,TTGGGCTTGA,1.01 ± 0.056
24,TTGGGCTTGC,1.04 ± 0.029
25,TTGGGGAAAG,0.986 ± 0.038

row,Sequence,switch fluorescence ratio
1,TTGGGGACCC,1.03 ± 0.035
2,TTGGGGACTC,1 ± 0.026
3,TTGGGGAGAC,1.07 ± 0.061
4,TTGGGGATGT,1 ± 0.031
5,TTGGGGATTC,0.991 ± 0.02
6,TTGGGGATTG,0.989 ± 0.021
7,TTGGGGCACA,1.01 ± 0.031
8,TTGGGGCCAT,0.999 ± 0.029
9,TTGGGGCCCG,1.01 ± 0.082
10,TTGGGGCCTC,1 ± 0.033
11,TTGGGGGAAG,0.981 ± 0.026
12,TTGGGGGACA,1.01 ± 0.014
13,TTGGGGGCTT,1 ± 0.039
14,TTGGGGGGCC,1.01 ± 0.031
15,TTGGGGGGCG,1.01 ± 0.073
16,TTGGGGGTTA,1.02 ± 0.019
17,TTGGGGTAAC,1.009 ± 0.01
18,TTGGGGTGAA,1.1 ± 0.14
19,TTGGGGTGGG,1.01 ± 0.046
20,TTGGGGTGTG,1.01 ± 0.017
21,TTGGGGTTCG,0.98 ± 0.029
22,TTGGGTAAAT,0.985 ± 0.031
23,TTGGGTAAGC,0.994 ± 0.066
24,TTGGGTAAGG,0.993 ± 0.029
25,TTGGGTAATT,0.998 ± 0.022

row,Sequence,switch fluorescence ratio
1,TTGGGTACGA,0.997 ± 0.0043
2,TTGGGTCAGA,0.981 ± 0.018
3,TTGGGTGAAC,1.002 ± 0.0088
4,TTGGGTGAGG,0.98 ± 0.028
5,TTGGGTGTTT,1.06 ± 0.035
6,TTGGGTTCTC,0.983 ± 0.037
7,TTGGGTTTCG,1.01 ± 0.042
8,TTGGGTTTTC,1.03 ± 0.065
9,TTGGTAAGCG,1.02 ± 0.051
10,TTGGTAAGGG,1.03 ± 0.011
11,TTGGTACTGT,1.02 ± 0.014
12,TTGGTCCCGA,1.001 ± 0.0014
13,TTGGTCGCCC,1.08 ± 0.17
14,TTGGTCGTTT,0.956 ± 0.038
15,TTGGTCTGGT,0.973 ± 0.024
16,TTGGTGACGT,1.03 ± 0.022
17,TTGGTGGGTT,0.994 ± 0.04
18,TTGGTGGTCT,1.05 ± 0.075
19,TTGGTGGTGG,1.01 ± 0.053
20,TTGGTTCACC,0.955 ± 0.029
21,TTGGTTGAAA,1.01 ± 0.013
22,TTGGTTGAAG,1.02 ± 0.013
23,TTGGTTGACA,0.9641 ± 0.0094
24,TTGGTTGCAA,0.983 ± 0.029
25,TTGGTTGGCG,0.992 ± 0.041

row,Sequence,switch fluorescence ratio
1,TTGGTTGGGA,1 ± 0.042
2,TTGGTTGGGG,1 ± 0.03
3,TTGGTTGTTA,1.01 ± 0.041
4,TTGGTTTACC,0.957 ± 0.011
5,TTGGTTTATG,0.993 ± 0.045
6,TTGGTTTCAT,1.009 ± 0.0094
7,TTGGTTTGTA,1 ± 0.065
8,TTGGTTTTCG,0.973 ± 0.026
9,TTGGTTTTTT,1 ± 0.034
10,TTGTAAATCG,0.975 ± 0.02
11,TTGTAAATT,1.02 ± 0.043
12,TTGTAAATTT,1.012 ± 0.01
13,TTGTAAGGAT,1.02 ± 0.013
14,TTGTAATGTT,1.01 ± 0.051
15,TTGTAATTGT,0.995 ± 0.021
16,TTGTAATTTA,1.01 ± 0.019
17,TTGTACATCC,1.03 ± 0.013
18,TTGTACGCCA,1.31 ± 0.19
19,TTGTAGACAG,1.013 ± 0.0088
20,TTGTAGCGGT,1.05 ± 0.034
21,TTGTAGTGGG,1.02 ± 0.048
22,TTGTAGTTAC,1.034 ± 0.0049
23,TTGTATAGTG,0.933 ± 0.033
24,TTGTATATGT,1.0292 ± 2.1e-05
25,TTGTATCACG,1.03 ± 0.059

# — the supplement of paper PMC10126150
